Assay results: article PMC10855146, “Secondary Modification of S100B Influences Anti Amyloid-β Aggregation Activity and Alzheimer’s Disease Pathology” (International Journal of Molecular Sciences, 2024)
Values belong to the binder of their own block, whether it stands above or below them.

Experiments:
[1] = molecular target: Human recombinant amyloid beta 42 (human, UniProt P05067 672-713); assay: cell-based or functional assay
[2] = molecular target: the molecule itself; assay: SEC; analytical size-exclusion chromatography, Superdex 75 Tricorn, room temperature, 1 mL/min, 50 mM TrisHCl pH 7.4, imidazole as internal standard

Human recombinant amyloid beta 42, sequence (P05067 672-713): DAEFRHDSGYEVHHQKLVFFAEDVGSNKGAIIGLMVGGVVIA

half-time of ThT-monitored aggregation of monomeric Aβ42 (5 μM) with a 10-fold excess of S100B (0.9 h for Aβ42 alone) [1]: 4.5 h
B1: Human S100B (natural protein, UniProt P04271 1-92, looked up)
chain: MSELEKAMVALIDVFHQYSGREGDKHKLKKSELKELINNELSHFLEEIKEQEVVDKVMETLDNDGDGECDFQEFMAFVAMVTTACHEFFEHE
notes: S100B, human, recombinant; also called non-oxidized S100B; unmodified S100B; source: apo form eluted on Superdex S75
stoichiometry N [2]: 2

blocking of Aβ42 fibril elongation in seeded ThT aggregation assays (5 μM Aβ42, 4-fold excess of S100Box, 0.04 µM pre-formed fibrils), against S100B [1]: ~3 fold against S100B
half-time of ThT-monitored aggregation of monomeric Aβ42 (5 μM) with a 10-fold excess of S100Box (0.9 h for Aβ42 alone) [1]: 8.5 h
B2: Oxidized S100B (HClO-treated recombinant human S100B) (natural protein, UniProt P04271 1-92, looked up)
chain: B1 chain
modifications: up to three methionine sulfoxide residues per S100Box monomer (positions not given); no Cys oxidation
notes: S100B, human, recombinant, oxidized with HClO; also called S100Box; S100ox
stoichiometry N [2]: 2
